tested on: human HL60 cells; test: SWATH-MS proteomics, differential protein representation, akirin2 KO vs WT HL60 cells; type: cell-based; conditions: SWATH-MS, akirin2 KO vs WT HL60 cells, under-represented in KO
How it was run: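 Three biological replicates per genotype; 150 µg protein FASP/trypsin digested; IDA library (3 µg digest); SWATH variable windows, 5 µg/sample, 3.6 s cycle; gradient 5–30% B 120 min then 30–60% B 15 min; 1% global FDR; TAS normalization.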

Row | Molecule | Fold Change | Log (Fold Change)
1 | sp¦Q9NVH1¦DJC11_HUMAN (protein, UniProt Q9NVH1 2-559, looked up) DnaJ homolog subfamily C …: ATALSEEELDNEDYYSLLNVRREASSEELKAAYRRLCMLYHPDKHRDPELKSQAERLFNLVHQAYEVLSDPQTRAIYDIYGKRGLEMEGWEVVERRRTPAEIREEFERLQREREERRLQQRTNPKGTISVGVDATDLFDRYDEEYEDVSGSSFPQIEINKMHISQSIEAPLTATDTAILSGSLSTQNGNGGGSINFALRRVTSAKGWGELEFGAGDLQGPLFGLKLFRNLTPRCFVTTNCALQFSSRGIRPGLTTVLARNLDKNTVGYLQWRWGIQSAMNTSIVRDTKTSHFTVALQLGIPHSFALISYQHKFQDDDQTRVKGSLKAGFFGTVVEYGAERKISRHSVLGAAVSVGVPQGVSLKVKLNRASQTYFFPIHLTDQLLPSAMFYATVGPLVVYFAMHRLIIKPYLRAQKEKELEKQRESAATDVLQKKQEAESAVRLMQESVRRIIEAEESRMGLIIVNAWYGKFVNDKSRKSEKVKVIDVTVPLQCLVKDSKLILTEASKAGLPGFYDPCVGEEKNLKVLYQFRGVLHQVMVLDSEALRIPKQSHRIDTDG | 0.7368 | -0.1326
2 | sp¦P08240¦SRPRA_HUMAN (protein, UniProt P08240 1-638, looked up) Signal recognition particle …: MLDFFTIFSKGGLVLWCFQGVSDSCTGPVNALIRSVLLQERGGNNSFTHEALTLKYKLDNQFELVFVVGFQKILTLTYVDKLIDDVHRLFRDKYRTEIQQQSALSLLNGTFDFQNDFLRLLREAEESSKIRAPTTMKKFEDSEKAKKPVRSMIETRGEKPKEKAKNSKKKGAKKEGSDGPLATSKPVPAEKSGLPVGPENGVELSKEELIRRKREEFIQKHGRGMEKSNKSTKSDAPKEKGKKAPRVWELGGCANKEVLDYSTPTTNGTPEAALSEDINLIRGTGSGGQLQDLDCSSSDDEGAAQNSTKPSATKGTLGGMFGMLKGLVGSKSLSREDMESVLDKMRDHLIAKNVAADIAVQLCESVANKLEGKVMGTFSTVTSTVKQALQESLVQILQPQRRVDMLRDIMDAQRRQRPYVVTFCGVNGVGKSTNLAKISFWLLENGFSVLIAACDTFRAGAVEQLRTHTRRLSALHPPEKHGGRTMVQLFEKGYGKDAAGIAMEAIAFARNQGFDVVLVDTAGRMQDNAPLMTALAKLITVNTPDLVLFVGEALVGNEAVDQLVKFNRALADHSMAQTPRLIDGIVLTKFDTIDDKVGAAISMTYITSKPIVFVGTGQTYCDLRSLNAKAVVAALMKA | 0.7296 | -0.1369
3 | sp¦P10809¦CH60_HUMAN (protein, UniProt P10809 27-573, looked up) 60 kDa heat shock protein, …: AKDVKFGADARALMLQGVDLLADAVAVTMGPKGRTVIIEQSWGSPKVTKDGVTVAKSIDLKDKYKNIGAKLVQDVANNTNEEAGDGTTTATVLARSIAKEGFEKISKGANPVEIRRGVMLAVDAVIAELKKQSKPVTTPEEIAQVATISANGDKEIGNIISDAMKKVGRKGVITVKDGKTLNDELEIIEGMKFDRGYISPYFINTSKGQKCEFQDAYVLLSEKKISSIQSIVPALEIANAHRKPLVIIAEDVDGEALSTLVLNRLKVGLQVVAVKAPGFGDNRKNQLKDMAIATGGAVFGEEGLTLNLEDVQPHDLGKVGEVIVTKDDAMLLKGKGDKAQIEKRIQEIIEQLDVTTSEYEKEKLNERLAKLSDGVAVLKVGGTSDVEVNEKKDRVTDALNATRAAVEEGIVLGGGCALLRCIPALDSLTPANEDQKIGIEIIKRTLKIPAMTIAKNAGVEGSLIVEKIMQSSSEVGYDAMAGDFVNMVEKGIIDPTKVVRTALLDAAGVASLLTTAEVVVTEIPKEEKDPGMGAMGGMGGGMGGGMF | 0.7233 | -0.1407
4 | sp¦P05164¦PERM_HUMAN (protein, UniProt P05164 165-745, looked up) Myeloperoxidase: VTCPEQDKYRTITGMCNNRRSPTLGASNRAFVRWLPAEYEDGFSLPYGWTPGVKRNGFPVALARAVSNEIVRFPTDQLTPDQERSLMFMQWGQLLDHDLDFTPEPAARASFVTGVNCETSCVQQPPCFPLKIPPNDPRIKNQADCIPFFRSCPACPGSNITIRNQINALTSFVDASMVYGSEEPLARNLRNMSNQLGLLAVNQRFQDNGRALLPFDNLHDDPCLLTNRSARIPCFLAGDTRSSEMPELTSMHTLLLREHNRLATELKSLNPRWDGERLYQEARKIVGAMVQIITYRDYLPLVLGPTAMRKYLPTYRSYNDSVDPRIANVFTNAFRYGHTLIQPFMFRLDNRYQPMEPNPRVPLSRVFFASWRVVLEGGIDPILRGLMATPAKLNRQNQIAVDEIRERLFEQVMRIGLDLPALNMQRSRDHGLPGYNAWRRFCGLPQPETVGQLGTVLRNLKLARKLMEQYGTPNNIDIWMGGVSEPLKRKGRVGPLLACIIGTQFRKLRDGDRFWWENEGVFSMQQRQALAQISLPRIICDNTGITTVSKNNIFMSNSYPRDFVNCSTLPALNLASWREAS | 0.7315 | -0.1358
5 | sp¦O15173¦PGRC2_HUMAN (protein, UniProt O15173 1-223, looked up) Membrane-associated …: MAAGDGDVKLGTLGSGSESSNDGGSESPGDAGAAAEGGGWAAAALALLTGGGEMLLNVALVALVLLGAYRLWVRWGRRGLGAGAGAGEESPATSLPRMKKRDFSLEQLRQYDGSRNPRILLAVNGKVFDVTKGSKFYGPAGPYGIFAGRDASRGLATFCLDKDALRDEYDDLSDLNAVQMESVREWEMQFKEKYDYVGRLLKPGEEPSEYTDEEDTKDHNKQD | 0.7369 | -0.1326
6 | sp¦O14776¦TCRG1_HUMAN (protein, UniProt O14776 1-1098, looked up) Transcription elongation …: MAERGGDGGESERFNPGELRMAQQQALRFRGPAPPPNAVMRGPPPLMRPPPPFGMMRGPPPPPRPPFGRPPFDPNMPPMPPPGGIPPPMGPPHLQRPPFMPPPMSSMPPPPGMMFPPGMPPVTAPGTPALPPTEEIWVENKTPDGKVYYYNARTRESAWTKPDGVKVIQQSELTPMLAAQAQVQAQAQAQAQAQAQAQAQAQAQAQAQAQAQAQAQAQAQAQAQAQAQAQAQAQAQAQAQAQVQAQVQAQVQAQAVGASTPTTSSPAPAVSTSTSSSTPSSTTSTTTTATSVAQTVSTPTTQDQTPSSAVSVATPTVSVSTPAPTATPVQTVPQPHPQTLPPAVPHSVPQPTTAIPAFPPVMVPPFRVPLPGMPIPLPGVAMMQIVSCPYVKTVATTKTGVLPGMAPPIVPMIHPQVAIAASPATLAGATAVSEWTEYKTADGKTYYYNNRTLESTWEKPQELKEKEKLEEKIKEPIKEPSEEPLPMETEEEDPKEEPIKEIKEEPKEEEMTEEEKAAQKAKPVATAPIPGTPWCVVWTGDERVFFYNPTTRLSMWDRPDDLIGRADVDKIIQEPPHKKGMEELKKLRHPTPTMLSIQKWQFSMSAIKEEQELMEEINEDEPVKAKKRKRDDNKDIDSEKEAAMEAEIKAARERAIVPLEARMKQFKDMLLERGVSAFSTWEKELHKIVFDPRYLLLNPKERKQVFDQYVKTRAEEERREKKNKIMQAKEDFKKMMEEAKFNPRATFSEFAAKHAKDSRFKAIEKMKDREALFNEFVAAARKKEKEDSKTRGEKIKSDFFELLSNHHLDSQSRWSKVKDKVESDPRYKAVDSSSMREDLFKQYIEKIAKNLDSEKEKELERQARIEASLREREREVQKARSEQTKEIDREREQHKREEAIQNFKALLSDMVRSSDVSWSDTRRTLRKDHRWESGSLLEREEKEKLFNEHIEALTKKKREHFRQLLDETSAITLTSTWKEVKKIIKEDPRCIKFSSSDRKKQREFEEYIRDKYITAKADFRTLLKETKFITYRSKKLIQESDQHLKDVEKILQNDKRYLVLDCVPEERRKLIVAYVDDLDRRGPPPPPTASEPTRRSTK | 0.7373 | -0.1323
7 | sp¦Q9H3N1¦TMX1_HUMAN (protein, UniProt Q9H3N1 27-280, looked up) Thioredoxin-related …: RRSNVRVITDENWRELLEGDWMIEFYAPWCPACQNLQPEWESFAEWGEDLEVNIAKVDVTEQPGLSGRFIITALPTIYHCKDGEFRRYQGPRTKKDFINFISDKEWKSIEPVSSWFGPGSVLMSSMSALFQLSMWIRTCHNYFIEDLGLPVWGSYTVFALATLFSGLLLGLCMIFVADCLCPSKRRRPQPYPYPSKKLLSESAQPLKKVEEEQEADEEDVSEEEAESKEGTNKDFPQNAIRQRSLGPSLATDKS | 0.7331 | -0.1348
8 | sp¦P11177¦ODPB_HUMAN (protein, UniProt P11177 31-359, looked up) Pyruvate dehydrogenase E1 …: LQVTVRDAINQGMDEELERDEKVFLLGEEVAQYDGAYKVSRGLWKKYGDKRIIDTPISEMGFAGIAVGAAMAGLRPICEFMTFNFSMQAIDQVINSAAKTYYMSGGLQPVPIVFRGPNGASAGVAAQHSQCFAAWYGHCPGLKVVSPWNSEDAKGLIKSAIRDNNPVVVLENELMYGVPFEFPPEAQSKDFLIPIGKAKIERQGTHITVVSHSRPVGHCLEAAAVLSKEGVECEVINMRTIRPMDMETIEASVMKTNHLVTVEGGWPQFGVGAEICARIMEGPAFNFLDAPAVRVTGADVPMPYAKILEDNSIPQVKDIIFAIKKTLNI | 0.7344 | -0.1341

same assay, conditions: akirin2 KO vs WT HL60 cells; sheet "Under-represented in KO"

Row | Molecule | Fold Change | Log (Fold Change)
9 | sp¦O95466¦FMNL1_HUMAN (protein, UniProt O95466 2-1100, looked up) Formin-like protein 1: GNAAGSAEQPAGPAAPPPKQPAPPKQPMPAAGELEERFNRALNCMNLPPDKVQLLSQYDNEKKWELICDQERFQVKNPPAAYIQKLKSYVDTGGVSRKVAADWMSNLGFKRRVQESTQVLRELETSLRTNHIGWVQEFLNEENRGLDVLLEYLAFAQCSVTYDMESTDNGASNSEKNKPLEQSVEDLSKGPPSSVPKSRHLTIKLTPAHSRKALRNSRIVSQKDDVHVCIMCLRAIMNYQSGFSLVMNHPACVNEIALSLNNKNPRTKALVLELLAAVCLVRGGHDIILAAFDNFKEVCGEQHRFEKLMEYFRNEDSNIDFMVACMQFINIVVHSVENMNFRVFLQYEFTHLGLDLYLERLRLTESDKLQVQIQAYLDNIFDVGALLEDTETKNAVLEHMEELQEQVALLTERLRDAENESMAKIAELEKQLSQARKELETLRERFSESTAMGPSRRPPEPEKAPPAAPTRPSALELKVEELEEKGLIRILRGPGDAVSIEILPVAVATPSGGDAPTPGVPTGSPSPDLAPAAEPAPGAAPPPPPPLPGLPSPQEAPPSAPPQAPPLPGSPEPPPAPPLPGDLPPPPPPPPPPPGTDGPVPPPPPPPPPPPGGPPDALGRRDSELGPGVKAKKPIQTKFRMPLLNWVALKPSQITGTVFTELNDEKVLQELDMSDFEEQFKTKSQGPSLDLSALKSKAAQKAPSKATLIEANRAKNLAITLRKGNLGAERICQAIEAYDLQALGLDFLELLMRFLPTEYERSLITRFEREQRPMEELSEEDRFMLCFSRIPRLPERMTTLTFLGNFPDTAQLLMPQLNAIIAASMSIKSSDKLRQILEIVLAFGNYMNSSKRGAAYGFRLQSLDALLEMKSTDRKQTLLHYLVKVIAEKYPQLTGFHSDLHFLDKAGSVSLDSVLADVRSLQRGLELTQREFVRQDDCMVLKEFLRANSPTMDKLLADSKTAQEAFESVVEYFGENPKTTSPGLFFSLFSRFIKAYKKAEQEVEQWKKEAAAQEAGADTPGKGEPPAPKSPPKARRPQMDLISELKRRQQKEPLIYESDRDGAIEDIITVIKTVPFTARTGKRTSRLLCEASLGEEMPL | 0.3323 | -0.4785
